Results published in patent US20160340442A1 (Dana-Farber, published 2016).

Assays:
[1] = target: T1, cell surface MUC1-C protein (human, UniProt P15941 1098-1255); assay: cell-based or functional assay
T1 sequence: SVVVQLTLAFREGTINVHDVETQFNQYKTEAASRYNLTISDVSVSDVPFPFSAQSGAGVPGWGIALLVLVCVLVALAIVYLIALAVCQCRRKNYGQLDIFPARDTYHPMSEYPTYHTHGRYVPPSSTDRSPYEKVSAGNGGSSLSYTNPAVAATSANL

[2] = target: T2, MUC1-C/ECD protein (human, UniProt P15941 1098-1155); assay: ELISA, plates coated with the MUC1-C/ECD antigen
T2 construct: also called MUC1-C/ECD antigen; the antigen
T2 sequence: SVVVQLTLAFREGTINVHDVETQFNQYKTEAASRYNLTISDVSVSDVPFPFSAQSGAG

[3] = target: T3, MUC1-CQC→AQA mutant (human, UniProt P15941 1098-1255); assay: flow cytometry, HCT116/MUC1-CQC→AQA mutant cells
T3 construct: also called HCT116/MUC1-CQC→AQA mutant cells
T3 chain: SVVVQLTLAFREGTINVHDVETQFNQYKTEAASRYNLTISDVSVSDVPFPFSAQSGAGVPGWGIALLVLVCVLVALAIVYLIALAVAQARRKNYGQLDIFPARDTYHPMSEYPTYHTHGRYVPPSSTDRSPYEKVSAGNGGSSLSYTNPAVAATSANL
Description: FIG. 37. HCT116/MUC1-wild-type and HCT116/MUC1-CQC→AQA mutant cells 7B8 for 30 min, washed, incubated with goat anti-mouse immunoglobulin-flourescein-conjugated antibody (Santa Cruz Biotechnology), and fixed in 1% formaldehyde/PBS. Reactivity was detected by immunofluorescence FACScan.

[4] = target: T4, P1 (human); assay: ELISA, peptide as competitor (indirect: peptide did not inhibit binding to the antigen)
T4 construct: Synthetic overlapping peptide of MUC1-C/ECD; also called peptide P1
T4 peptide: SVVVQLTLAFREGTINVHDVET

[5] = target: T5, P2 (human); assay: as above
T5 construct: Synthetic overlapping peptide of MUC1-C/ECD; also called peptide P2
T5 peptide: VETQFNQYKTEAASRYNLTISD

[6] = target: T6, P3 (human); assay: as above
T6 construct: Synthetic overlapping peptide of MUC1-C/ECD; also called peptide P3
T6 peptide: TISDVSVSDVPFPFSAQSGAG

[7] = target: T1, cell surface MUC1-C protein; assay: flow cytometry, ZR-75-1 cells, competitive format with purified MUC1-C/ECD protein; 7B8 binding not abrogated
Description: Characterized of 7B8 and 3D1 antibodies. Linear epitope mapping of 7B8 and 3D1 clones was performed using three overlapping peptides spanning the entire MUC1-C/ECD region (58 amino acids) were synthesized. ELISA assays were performed using 7B8 or 3D1 purified antibodies in the presence or absence of P1, P2 or P3 peptides. […] Conformational epitope mapping of 7B8 and 3D1 was performed using eight critical individual point mutants in the MUC1-C/ECD region by ELISA. […] These findings indicate that D19 is a part of the conformational core/pocket for 3D1 binding. ZR-75-1 breast carcinoma cells were used determine 7B8 or 3D1 antibody binding in a competitive format with MUC1-C/ECD and analyzed by FLOW. […] These findings indicate that the conformational binding epitopes of 7B8 and 3D1 are different. The sequencing results for hybridoma 3D1 is shown in FIG. 50 and is discussed in greater detail below.

[8] = target: T7, bacterially-produced MUC1-C/ECD protein (human, UniProt P15941 1098-1155); assay: Western blot
T7 construct: Produced in bacteria; also called MUC1 proteins made in bacteria; p58-mFc
T7 sequence: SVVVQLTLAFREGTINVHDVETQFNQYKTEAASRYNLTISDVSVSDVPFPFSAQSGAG

[9] = target: T8, MUC1-C/ECD-hFc (human, UniProt P15941 1098-1155); assay: hybridoma screen, indirect ELISA or Western blot; antigen MUC1-C/ECD-mFc or MUC1-C/ECD-hFc
T8 construct: The screening text says the antigen was MUC1-C/ECD-mFc or MUC1-C/ECD-hFc; the hFc form is used here because hFc alone was the negative control; also called hFc-MUC1-C/ECD; MUC1-ECD-hFc; not shown: human Fc (hFc)
T8 sequence: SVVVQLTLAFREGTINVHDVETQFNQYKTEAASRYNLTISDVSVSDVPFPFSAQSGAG
Description: ELISA. ELISA was performed by coating the plates with 100 μl of 1 μg/ml MUC1-C/ECD-hFc or MUC1-C/ECD-mFc or hFc (as negative control). Hybridoma supernatants or immune sera were screened against the coated proteins by incubating with the plate for 1 hr. The bound antibody was detected by incubating with specific secondary antibody (anti-mouse Ig, F(ab)₂ specific) conjugated to HRP (horse radish peroxidase). Further, the reaction was developed with HRP-specific substrate for 30 min and the plate was read at 405 nm.
Fusion for Hybridoma and Primary Screening. Based on the results obtained from the ELISA, spleen from both mice was used for fusion with myeloma cells to generate hybridoma. Spleen-myeloma fusion was performed by mixing mouse myeloma cells sp2/0-Ag14 and splenocytes in 1:3 ratio in the presence of polyethylene glycol (PEG). Post fusion cell culture was carried out in selective HAT medium. Hybridomas selected by indirect ELISA or Western blot using recombinant MUC-C/ECD-mFc or MUC1-C/ECD-hFc as the antigen and were subjected to subcloning by limiting dilution protocol until the clones become stable. The fusion clones obtained from the spleen of mouse 1 is termed as 315.1 clones and similarly the one from mouse 2 is called 315.2 clones. The fusion clones obtained from the spleen of mouse 1 from other immunization batch is termed as 384 clones. […]

[10] = target: T1, cell surface MUC1-C protein; assay: flow cytometry, ZR-75-1, MCF-7 and HCT-116/MUC1 cells
Text: FIG. 35. […] Reactivity was detected by immunofluorescence FACScan.
FIG. 36. […] Reactivity was detected by immunofluorescence FACScan.

[11] = target: T2, MUC1-C/ECD protein; assay: ELISA, plates coated with the antigen, multiple antibody concentrations
Description: FIG. 38. ELISA assays were performed by coating plates with the antigen and reactivity with multiple different concentrations of purified antibodies 7B8, 4G5 and 2B11.

[12] = target: T1, cell surface MUC1-C protein; assay: surface staining, flow cytometry, K562 CML cells; 2 µg antibody/sample
[13] = target: T1, cell surface MUC1-C protein; assay: surface staining, flow cytometry, KU812 CML cells; 2 µg antibody/sample
[14] = target: T1, cell surface MUC1-C protein; assay: surface staining, flow cytometry, ZR-75-1 cells (third row); 2 µg antibody/sample
[15] = target: T1, cell surface MUC1-C protein; assay: surface staining, flow cytometry, K562 MUC1-siRNA cells (MUC1 silenced); 2 µg antibody/sample
[16] = target: T1, cell surface MUC1-C protein; assay: surface staining, flow cytometry, K562 CTL-siRNA cells; 2 µg antibody/sample; fixed samples kept at 4° C. for 4 days

B1: 7B8-MMAF (other)
VH: QVQLQQPGAELVKPGASEKLSCKASGHTFTSYWMHWVKQRPGQGLEWIGEINPSNGRTYYNENFKTKATLTVDKYSSSASMQLRSLTSEDSAVYYCASDGDYVSGFAYWGQGTTLTVSS
VL: DIVLTQSPGSLAVSLGQSVTISCRASESVQYSGTSLMHWYQQKPGQPPKLLIYGASNVETGVPARFSGSGSGTDFSLNIHPVEEDDIAMYFCQQNWKVPWTFGGGTKLEIK
modifications: monomethyl auristatin F (MMAF) via cleavable linker valine-citrulline-p-aminobenzyl (Val-Cit-PAB); attachment residues not stated
[1]
  dose-dependent inhibition of proliferation in ZR-75-1 breast carcinoma cells, IC50: ~0.86 nM

B2: 400.6.7B8.G3.G1 (antibody, IgG2a, V domains shown)
VH: QVQLQQPGAELVKPGASEKLSCKASGHTFTSYWMHWVKQRPGQGLEWIGEINPSNGRTYYNENFKTKATLTVDKYSSSASMQLRSLTSEDSAVYYCASDGDYVSGFAYWGQGTTLTVSS
VL: DIVLTQSPGSLAVSLGQSVTISCRASESVQYSGTSLMHWYQQKPGQPPKLLIYGASNVETGVPARFSGSGSGTDFSLNIHPVEEDDIAMYFCQQNWKVPWTFGGGTKLEIK
[2]
  binding result: binds
[3]
  binding result: binds
[4]
  binding result: no binding
[5]
  binding result: no binding
[6]
  binding result: no binding
[7]
  binding result: binds

B3: 384.1.2H11.F2.G6 (antibody, V domains shown)
VH: QIQLVQSGPELKKPGETVKTSCKASGYTFTGYSMHWVKQAPGKGLKWMGWINTETGEPTYADDFKGRFALSLETSASTTYLQINNLKNEDTATYFCVRGTGGDDWGQGTTLTVSS
VL: DVVMTQTPLSLPVSLGDQASISCRSSQSLVHSNGNTYLHWYLQKPGQSPKLLIYKVSNRFSGVPDRFSGSGSGTDFTLKINRVEAEDLGVYFCSQGTHVPPTFGGGTKLEIKR
notes: The printed entries run a few residues into the constant regions; also called 384.2H11.F2.G6
[8]
  binding result: binds
[9]
  binding result: binds

B4: 400.6.2B11.D5.F6 (antibody, IgG1, V domains shown)
VH: QVQLQQSGAELMKPGASVKISCKAIGFTFNYFWIEWVKQRPGHGLEWIGEILPGTGSTNYNEKFKGKAIFTADTSSNTAYMQLRSLTSEDSAVYYCVRYDYTSSMDYWGQGTSVTVSS
VL: NIVMTQSPKSMSMSVGERVTLTCKASENVGTYVSWYQQKPEQSPKLLIYGASNRYTGVPNRFTGSGSATDFTLTISSVQAEDLADYYCGQSYSYPWTFGGGTKLEIK
[10]
  binding result: binds
[11]
  binding result: binds
[4]
  binding result: no binding
[5]
  binding result: no binding
[6]
  binding result: no binding

B5: 400.6.4G5.E11.G2 (antibody, IgG1, V domains shown)
VH: QITLKESGPGILQPSQTLSLTCSFSGFSLSTSGMGVSWIRQPSGKGLEWLSHIYWDDDKRYNPSLKSRLSISKDTSRNQVFLKITSVDTADTATYYCAPGVSSWFPYWGPGTLVTVSA
VL: SIVMTQTPKFLPVSAGDRVTVTCKASQSVGNYVAWYQQKPGQSPKLLIYFASNRYSGVPDRFTGSGSGTDFTFTISSVQVEDLAVYFCQQHYIFPYTFGSGTKLEIK
[10]
  binding result: binds
[11]
  binding result: binds
[4]
  binding result: no binding
[5]
  binding result: no binding
[6]
  binding result: no binding

B6: 315.1.6A6.C11.G5 (antibody, V domains shown)
VH: QVQLKESGPGLVAPSQSLSMTCTVSGFSLTTYGVHWVRQPPGKGLEWLVVIWSDGSTTYNSPLKSRLSISRDNSKSQVFLKMNSLQADDTAIYYCAKNYLGSLDYWGQGTSVTVSS
VL: DVVLTQTPLSLPVSLGDQASISCRSSQSLVHNNGDTYLHWYLQKPGQSPKLLIYKVSNRFSGVPDRFSGSGSGTDFTFKISRVEAEDLGVYFCSQTTHVPLTFGAGTKLELK
notes: also called MAb 6A6; Clone 6A6
[12]
  flow cytometry value (unit not given): 9.31
[13]
  flow cytometry value (unit not given): 31.6
[14]
  flow cytometry value (unit not given): 2.16
[15]
  flow cytometry value (unit not given): 6.26
[16]
  flow cytometry value (unit not given): 22.6

B7: 315.2.8E1.F7.C3.H7.H8.F5 (antibody, V domains shown)
VH: EVQLVESGGGLVQPGESLKLSCESNEYEFPSHDMSWVRKTPEKRLELVAAINSDGGSTYYPDTMERRFIISRDNTKKTLYLQMSSLRSEDTALYYCVRLYYGNVMDYWGQGTSVTVSS
VL: DVVMTQTPLSLPVSLGDQASISCRSSQSLVHSNGNTYLYWYLQKPGQSPKLLIYKVSNRFSGVPDRFSGSGSGTDFTLKISRVEAEDLGVYFCSQSTHVPLTFGAGTKLELK
notes: also called MAb 8E1; Clone 8E1
[12]
  flow cytometry value (unit not given): 8.65
[13]
  flow cytometry value (unit not given): 39.6
[14]
  flow cytometry value (unit not given): 1.61
[15]
  flow cytometry value (unit not given): 6.91
[16]
  flow cytometry value (unit not given): 22.4

B8: 315.2.8F1.D2.D1 (antibody, V domains shown)
VH: EVQLVESGGGLVQPGESLKLSCESNEYEFPSHDMSWVRKTPEKRLELVAAINSDGGSTYYPDTMERRFIISRDNTKKTLYLQMSSLRSEDTALYYCVRLYYGNVMDYWGQGTSVTVSS
VL: DVVMTQTPLSLPVSLGDQASISCRSSQSLVHSNGNTYLYWYLQKPGQSPKLLIYKVSNRFSGVPDRFSGSGSGTDFTLKISRVEAEDLGVYFCSQSTHVPLTFGAGTKLELK
notes: also called Clone 8F1; P58-8F1
[12]
  flow cytometry value (unit not given): 9.58
[13]
  flow cytometry value (unit not given): 39.9
[14]
  flow cytometry value (unit not given): 1.57
[15]
  flow cytometry value (unit not given): 6.37
[16]
  flow cytometry value (unit not given): 34.4
